In series [1] the target is zebrafish guanylate cyclase-activating protein 1 (zebrafish (Danio rerio)). The experiment in a line: SEC; analytical size exclusion chromatography (HPLC) on a BioSep-SEC S2000 column with molecular mass standards, 20 µg purified protein, run in the presence of 0.5 mM EGTA (Ca2+-free); dimer to monomers. (In general: Size exclusion chromatography separates by hydrodynamic size, large species first.)

Series [2] concerns the molecule itself. The series is described as above.

The stoichiometry N is the number of molecules, sites or subunits per partner or assembly.

For the molecule “zebrafish guanylate cyclase-activating protein 1 (natural protein)”, in series [1], the percent dimers is 18% and the stoichiometry N is 2.

B1: zebrafish guanylate cyclase-activating protein 7 (natural protein, zebrafish (Danio rerio), UniProt Q5MAC7 1-187, looked up)
chain: MGQNQSDEEEEEVELTEIQPLYTRFMKVCPSGALHLHEFRRIFGVQSSSEEEALYMETIFKSFDTNRDNVIDFMEFVAAVHLVLRGNLEDRLKWSFKVYDRDENGKLDRQEVIHVIRILCKLKKNRINMTPVEICDRIFELLDENNDGQISLSEFLEGAEKDAWIMDLLKLDTNARVWFRDNLGKKT
notes: Non-myristoylated; also called zGCAP7; source: anion exchange, ammonium sulfate precipitation, SEC
Consider B1, for which the “stoichiometry N” value in series [2] is 2.

The record behind these values is article PMC3149064, “Differential Calcium Signaling by Cone Specific Guanylate Cyclase-Activating Proteins from the Zebrafish Retina” (PLoS ONE, 2011).
